The results in this text go back to the supplement of paper PMC10567573.

± gives the standard deviation.

The data set can be described thus: protein stability index of a GFP-peptide fusion (GPS, HEK-293T) (PSI 1-6); higher = more stable. The note with it: c terminus: a fixed tail appended.
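Further: 24-mer peptide tiles fused after GFP, lentivirally expressed, FACS-sorted into six equal bins by GFP/DsRed ratio, decoded by Illumina sequencing, PSI is the read-weighted mean bin number.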

Consider CHRHYHSMEVFTHYDLLNLNGTKV [LOXL2], for which the protein stability index reads like this: (treatment: DMSO) 2.21 ± 0.12; (treatment: MLN4924 1 uM, 8 h) 1.99 ± 0.25.
For CIDFNKNLNEDDTFLVFSKAELGA, in that order: 2.88 ± 0.63 and 2.81 ± 0.24.
On the same counts, the results for CLETLPEFRDDRDLVMALSAGGHG [KCNA4] are 3.68 ± 0.26 and 3.51 ± 0.34.
For the sequence CLQQKQVVAEAQTRVSQLGLQVEG [LRRC45], the protein stability index runs as follows: (treatment: DMSO) 3.86 ± 0.24; (treatment: MLN4924 1 uM, 8 h) 3.8 ± 0.38.
For CLTQSTAAPAVRASSSPVTLRQKT [SLA], in that order: 4.02 ± 0.35 and 4.35 ± 0.052.
On the same counts, the results for CQVALNFANEEEAKKFRKAVTDLL [WASL] are 1.91 ± 0.35 and 2.53 ± 0.84.
For DAPLPGSKAKPKPPKQAQKEQRKQ [TBC1D10A], the protein stability index is 5.45 ± 0.087 (treatment: DMSO) and 5.31 ± 0.18 (treatment: MLN4924 1 uM, 8 h).
On the same counts, the results for DDATLSRLELERKIESLMDEIEFL [PRPH] are 4 ± 0.23 and 3.88 ± 0.28.
For DDRVLSSLVRDTIARVHGTFGAAA [POP5], in that order: 2.89 ± 0.29 and 2.96 ± 0.23.
On to DDSKFPIEDTPLVPVSFIFIFTFV [PCDHGA10], for which the protein stability index is, setting by setting: (treatment: DMSO) 3.32 ± 0.36; (treatment: MLN4924 1 uM, 8 h) 2.09 ± 0.062.
On the same counts, the results for DEDDVDQELANIDPTWIESPKTNG [SRPK2] are 5.23 ± 0.63 and 5.2 ± 0.36.
With DEELGGSSRVPVGGGPEATLSISD [ZBTB22], the protein stability index is, setting by setting: (treatment: DMSO) 5.37 ± 0.18; (treatment: MLN4924 1 uM, 8 h) 5.42 ± 0.06.
For DEGEEFDDWEDDYDYPEEEQLSGA [EID1], in that order: 5.39 ± 0.22 and 5.3 ± 0.22.
On the same counts, the results for DENYNLLPHGVNFQDAIFPDTQEN [CCDC3] are 4.92 ± 0.29 and 5.06 ± 0.21.
As to DEPTFKVLLKTADPRYELPSRKYI [ZBED1], the protein stability index was 2.81 ± 0.26 (treatment: DMSO) and 3.19 ± 0.4 (treatment: MLN4924 1 uM, 8 h).
For the sequence DEQEKGIVTKFYQLSATGQKLYVR [FAN1], the protein stability index runs as follows: (treatment: DMSO) 2.92 ± 0.22; (treatment: MLN4924 1 uM, 8 h) 2.94 ± 0.54.
As for DGDIPNIPAEENASTSTPSSTLVR [FAM189A2], the protein stability index is 5.47 ± 0.2 (treatment: DMSO) and 5.55 ± 0.15 (treatment: MLN4924 1 uM, 8 h).
On the same counts, the results for DGKLQLLQKLLSGRSREELDELTG [FEM1A] are 3.24 ± 0.31 and 3.29 ± 0.26.
On the same counts, the results for DGRQLRKMLRKEAAARCVVLDCRP [DUSP5] are 2.69 ± 0.24 and 3.07 ± 0.23.
For the sequence DHPGIHEPLEPEVKYVGNMHGNEA [CPN1], the protein stability index by setting is: (treatment: DMSO) 4.98 ± 0.56; (treatment: MLN4924 1 uM, 8 h) 5.08 ± 0.19.
On the same counts, the results for DHPIVETLRQKAEADKNDKAVKDL [HSP90AB1] are 5.58 ± 0.29 and 5.64 ± 0.14.
On the same counts, the results for DIFPELDDILYHVKGMQRIVNQWS [DLC1] are 2.42 ± 0.13 and 2.49 ± 0.12.
For DIYKQECSSRPLQKGSHPMCKEHE [TRIM63], in that order: 4.49 ± 0.24 and 4.67 ± 0.23.
As for DKWVNDPHRMDRRLLALIYLAHAS [GOLPH3], the protein stability index is, setting by setting: (treatment: DMSO) 2.63 ± 0.91; (treatment: MLN4924 1 uM, 8 h) 2.1 ± 0.31.
On the same counts, the results for DLCLLYPPFMIALACLHVACVVQQ [CCNC] are 3.11 ± 0.28 and 3.12 ± 0.24.
On the same counts, the results for DLDANLRKLNSRLFVIRGQPADVF [CRY1] are 2.07 ± 0.29 and 2.55 ± 0.4.
On the same counts, the results for DLGLAPRELAERGVRIVSRGRTQL [PCDHGA10] are 3.75 ± 0.16 and 3.81 ± 0.25.
With DLSDNRNEDPLVLLAWRCTKLSLL [FBXO33], the protein stability index was 2.54 ± 0.38 (treatment: DMSO) and 2.22 ± 0.24 (treatment: MLN4924 1 uM, 8 h).
DMFDADGGGDISVKELGTVMRMLG [TNNC2] showed a protein stability index (treatment: MLN4924 1 uM, 8 h) of 2.58 ± 0.16.
Consider DMIYVSGGFDGSRRHTSMERYDPN [KLHL12], for which the protein stability index is 3.85 ± 0.15 (treatment: DMSO) and 4 ± 0.3 (treatment: MLN4924 1 uM, 8 h).
On the same counts, the results for DNDRTTPSDLDSTGNSLNEPEEPS [DLC1] are 5.61 ± 0.21 and 5.63 ± 0.11.
Take DNEYAYLKAIIFFDPDAKGLSDPG [HNF4A]: the protein stability index by setting is: (treatment: DMSO) 1.92 ± 0.19; (treatment: MLN4924 1 uM, 8 h) 2.14 ± 0.092.
On the same counts, the results for DPDECGSDYISEFRFAPNHTKELE [EPB41L3] are 2.91 ± 0.91 and 3.67 ± 0.79.
On the same counts, the results for DPGLGEGPALWLRSTCVYVCALSA [PLEKHN1] are 2.55 ± 0.045 and 2.09 ± 0.38.
On the same counts, the results for DRGSCVSTTEGIQLAKELGATYLE [RHOBTB3] are 4.45 ± 0.14 and 4.47 ± 0.24.
For DSGQYWPSVYHAMPSPCSCMSFNP [WDFY2], the protein stability index is, setting by setting: (treatment: DMSO) 2.37 ± 0.19; (treatment: MLN4924 1 uM, 8 h) 2.31 ± 0.44.
DSHVSSCSEDWVGYQRKCYFISTV [CD69] registered a protein stability index (treatment: DMSO) of 2.46 ± 0.88 and a protein stability index (treatment: MLN4924 1 uM, 8 h) of 2.65 ± 0.6.
On the same counts, the results for DSMYGECRTYIIHYYLMDDTVEIR [EFHC1] are 2.35 ± 0.6 and 2.6 ± 0.69.
On the same counts, the results for DTGHDSDKSDQSLPNASADSLGGS [TRAF3IP2] are 5.35 ± 0.42 and 5.51 ± 0.18.
As to DTSKQKKMETMYPFIVTLEGNALQ [ZNF449], the protein stability index by setting is: (treatment: DMSO) 3.12 ± 0.34; (treatment: MLN4924 1 uM, 8 h) 2.85 ± 0.12.
For DVPTIQEKVNEGKYRSYEEFKADA [ZMYND11], the protein stability index by setting is: (treatment: DMSO) 5.21 ± 0.3; (treatment: MLN4924 1 uM, 8 h) 5.26 ± 0.15.
On the same counts, the results for DVTSGDHGDYFRLLLPGIYTVSAT [CPN1] are 2.29 ± 0.57 and 2.02 ± 0.23.
With DVVCKNQDELRNRSVKVICLGSLA [FAN1], the protein stability index was found to be 2.72 ± 0.26 (treatment: DMSO) and 2.98 ± 0.2 (treatment: MLN4924 1 uM, 8 h).
On the same counts, the results for DWNEWRDYHLLHPVENIPEIILYW [SLC25A25] are 2.35 ± 0.51 and 2.2 ± 0.12.
DWVVVKEPVIKVAAIDNGLAFPLK [PI4K2A]: the protein stability index runs as follows: (treatment: DMSO) 2.52 ± 0.43; (treatment: MLN4924 1 uM, 8 h) 2.94 ± 0.29.
For the sequence DYFISYGIEHAQCVPPSEFSEPSF [ETS1], the protein stability index (treatment: DMSO) turned out to be 2.49 ± 0.26 and the protein stability index (treatment: MLN4924 1 uM, 8 h) came to 2.67 ± 0.18.
On the same counts, the results for DYFPSEDFYRCGYCKNESGSRSNG [ATE1] are 3.07 ± 0.32 and 3.35 ± 0.49.
As to DYRPMNHEAFKDELKTFRLKTRSW [CDC25B], the protein stability index is, setting by setting: (treatment: DMSO) 3.46 ± 0.27; (treatment: MLN4924 1 uM, 8 h) 3.41 ± 0.25.
For EAKSAQPADGWKGERPRSEEDNEL [GCH1], in that order: 5.56 ± 0.098 and 5.35 ± 0.16.
In the case of EATQFLKQILDGVHYLHSKRIAHF [DAPK3], the protein stability index was determined as 2.9 ± 0.44 (treatment: DMSO) and 2.92 ± 0.56 (treatment: MLN4924 1 uM, 8 h).
Sequence ECFMCSDCGLNLKQRGYFFLDERL [PDLIM4] gave a protein stability index (treatment: DMSO) of 2.26 ± 0.32 and a protein stability index (treatment: MLN4924 1 uM, 8 h) of 2.08 ± 0.34.
For EDDAQSRRDEQDDDDKGDSKETRL [GOLPH3], in that order: 5.54 ± 0.21 and 5.66 ± 0.17.
On the same counts, the results for EDEDEDEDEDEDKEEEEEDCSEEY [TAF7L] are 5.65 ± 0.31 and 5.58 ± 0.13.
On the same counts, the results for EDQHRLYQQIKAGAYDFPSPEWDT [CAMK2D] are 4.36 ± 0.26 and 4.42 ± 0.21.
As to EDQTEYLEERRVKEVVKKHSQFIG [HSP90AB1], the protein stability index came to 4.11 ± 0.16 (treatment: DMSO) and 4.93 ± 0.17 (treatment: MLN4924 1 uM, 8 h).
Consider EDTSNDESSILGTDIDLQTIDNDI [M1AP], for which the protein stability index is, setting by setting: (treatment: DMSO) 5.56 ± 0.093; (treatment: MLN4924 1 uM, 8 h) 5.56 ± 0.18.
On the same counts, the results for EEALRKNTEEQLEIALAPYQHLEE [MTUS2] are 5.27 ± 0.18 and 5.22 ± 0.23.
For EEEGGEEEEEAAMYEEEMEREEIT [FAM50A], in that order: 5.6 ± 0.13 and 5.71 ± 0.11.
As to EEEGIETQYFAELLMTSGVVLCEG [CNOT7], the protein stability index came to 3.27 ± 0.24 (treatment: DMSO) and 3.39 ± 0.12 (treatment: MLN4924 1 uM, 8 h).
EEEGPSTFPDLESEFQAALSRKVA [MAGEA3] had a protein stability index (treatment: DMSO) of 4.95 ± 0.22 and a protein stability index (treatment: MLN4924 1 uM, 8 h) of 5.12 ± 0.22.
For EEEISETGELVGPFVSAMPTPMPH [ZBED2], in that order: 5.1 ± 0.2 and 5.17 ± 0.15.
For EEEPGVRNGMASEGLNSSLCSPGH [PSD2], in that order: 5.1 ± 0.23 and 5.26 ± 0.13.
In the case of EEKAFESVIEPVQESSFRSRKIAV [MIA2], the protein stability index runs as follows: (treatment: DMSO) 4.31 ± 0.16; (treatment: MLN4924 1 uM, 8 h) 4.11 ± 0.22.
For EELCAQSARCVVSFNILVEDRVKL [PCDHGA10], in that order: 2.57 ± 0.19 and 2.21 ± 0.4.
For EEREEGPPRIPQADQWKSSNKSLV [RHOBTB1], the protein stability index reads like this: (treatment: DMSO) 4.99 ± 0.22; (treatment: MLN4924 1 uM, 8 h) 5.08 ± 0.29.
On the same counts, the results for EETESSDDVEVLTLKKFKGDLAYR [C8orf76] are 4.71 ± 0.19 and 4.61 ± 0.16.
For EFKADAQLLLHNTVIFYGADSEQA [ZMYND11], in that order: 3.06 ± 0.32 and 3.32 ± 0.23.
On to EFKSSFSQSFSLYVKYQVAIHQDP [ATE1], for which the protein stability index was 2.63 ± 0.95 (treatment: DMSO) and 2.52 ± 0.95 (treatment: MLN4924 1 uM, 8 h).
On the same counts, the results for EGASSDNGCEVKNRKSILSRHLNS [PHTF1] are 4.74 ± 0.46 and 4.68 ± 0.16.
Consider EGLYEQAFQLLRRFVQAEGRRATL [TRADD], for which the protein stability index runs as follows: (treatment: DMSO) 2.28 ± 0.13; (treatment: MLN4924 1 uM, 8 h) 2.23 ± 0.54.
As to EGYTPLMEAAREGHEEMVALLLGQ [ANKRD17], the protein stability index runs as follows: (treatment: DMSO) 4.07 ± 0.32; (treatment: MLN4924 1 uM, 8 h) 4.07 ± 0.22.
On the same counts, the results for EHPFLVNLWYSFQDEEDMFMVVDL [STK32A] are 2.9 ± 0.73 and 2.63 ± 0.58.
On to EHPNVVRLMDVCATSRTDREIKVT [CDK4], for which the protein stability index was 3.93 ± 0.36 (treatment: DMSO) and 4.14 ± 0.38 (treatment: MLN4924 1 uM, 8 h).
